Data from patent US20070141716.

Columns and labels:
[1] = target: UBC13/Uev1 heterodimer, P61088
Chain of UBC13/Uev1 heterodimer, P61088 (P61088 whole entry, chain 1 of 2): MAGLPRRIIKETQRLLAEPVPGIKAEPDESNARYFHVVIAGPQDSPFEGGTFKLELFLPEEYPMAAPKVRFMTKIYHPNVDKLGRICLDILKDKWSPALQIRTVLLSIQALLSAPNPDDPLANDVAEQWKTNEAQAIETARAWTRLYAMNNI
Chain of UBC13/Uev1 heterodimer, P61088 (chain, as listed by the source, chain 2 of 2): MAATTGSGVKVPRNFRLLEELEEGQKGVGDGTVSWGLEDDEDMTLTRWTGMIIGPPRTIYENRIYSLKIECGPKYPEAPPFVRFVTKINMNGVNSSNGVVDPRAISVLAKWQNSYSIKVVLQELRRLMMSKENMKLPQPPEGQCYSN

Chain of UbcH5c, P61077 (P61077 whole entry): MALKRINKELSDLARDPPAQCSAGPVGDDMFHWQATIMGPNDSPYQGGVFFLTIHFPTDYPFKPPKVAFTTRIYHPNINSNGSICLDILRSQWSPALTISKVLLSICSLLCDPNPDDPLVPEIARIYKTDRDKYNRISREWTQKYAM

B1: glutathione-S-transferase protein (GST)-PEM-3-like fusion protein (protein)
chain: MMAAMLSHAYGPGGCGAAAAALNGEQAALLRRKSVNTTECVPVPSSEHVAEIVGRQGCKIKALRAKTNTYIKTPVRGEEPIFVVTGRKEDVAMAKREILSAAEHFSMIRASRNKNGPALGGLSCSPNLPGQTTVQVRVPYRVVGLVVGPKGATIKRIQQQTHTYIVTPSRDKEPVFEVTGMPENVDRAREEIEMHIAMRTGNYIELNEENDFHYNGTDVSFEGGTLGSAWLSSNPVPPSRARMISNYRNDSSSSLGSGSTDSYFGSNRLADFSPTSPFSTGNFWFGDTLPSVGSEDLAVDSPAFDSLPTSAQTIWTPFEPVNPLSGFGSDPSGNMKTQRRGSQPSTPRLSPTFPESIEHPLARRVRSDPPSTGNHVGLPIYIPAFSNGTNSYSSSNGGSTSSSPPESRRKHDCVICFENEVIAALVPCGHNLFCMECANKICEKRTPSCPVCQTAVTQAIQIHS
- free polyubiquitin chain formation, immunoblot [1]: free polyubiquitin chains were only generated in the presence of UBC13/Uev1 heterodimer and a complete ubiquitin conjugation system
- in vitro self-ubiquitination, anti-ubiquitin immunoblot [1]: high molecular weight PEM-3-like-ubiquitin adducts were detected by anti-ubiquitin immunoblot analysis
- ubiquitin ligase activity by TR-FRET [1]: PEM-3-like acts as an E3 ligase with both UbcH5 and UBC13/Uev1
- ubiquitin ligase activity by TR-FRET (UbcH5c, P61077): PEM-3-like acts as an E3 ligase with both UbcH5 and UBC13/Uev1
